The text below walks through data of US20070207507A1.

The target in one assay is TAG-72. Description: 99mTc-labeled phage on LS-174T colon cancer cells expressing TAG-72.
Assay [1] concerns the target myeloperoxidase. Description: 99mTc-phage incubated with 125I-myeloperoxidase, separated on a spin column / Sepharose 6B column.
Assay [2] addresses myeloperoxidase. Description: SE-HPLC on a Superose-12 column, 5 min incubation.
Assay [3] addresses myeloperoxidase. Description: SE-HPLC on a Superose-12 column, 2 hours incubation.
In assay [4] the target is myeloperoxidase. Description: SPR (Biacore 1000), biotinylated myeloperoxidase on a streptavidin chip, peptide at 1 uM, fitted curve.

Bridges are numbered along the chain shown (N, C = ends). Where no end group is shown, it is not given here.

Chain of myeloperoxidase (P05164 165-745): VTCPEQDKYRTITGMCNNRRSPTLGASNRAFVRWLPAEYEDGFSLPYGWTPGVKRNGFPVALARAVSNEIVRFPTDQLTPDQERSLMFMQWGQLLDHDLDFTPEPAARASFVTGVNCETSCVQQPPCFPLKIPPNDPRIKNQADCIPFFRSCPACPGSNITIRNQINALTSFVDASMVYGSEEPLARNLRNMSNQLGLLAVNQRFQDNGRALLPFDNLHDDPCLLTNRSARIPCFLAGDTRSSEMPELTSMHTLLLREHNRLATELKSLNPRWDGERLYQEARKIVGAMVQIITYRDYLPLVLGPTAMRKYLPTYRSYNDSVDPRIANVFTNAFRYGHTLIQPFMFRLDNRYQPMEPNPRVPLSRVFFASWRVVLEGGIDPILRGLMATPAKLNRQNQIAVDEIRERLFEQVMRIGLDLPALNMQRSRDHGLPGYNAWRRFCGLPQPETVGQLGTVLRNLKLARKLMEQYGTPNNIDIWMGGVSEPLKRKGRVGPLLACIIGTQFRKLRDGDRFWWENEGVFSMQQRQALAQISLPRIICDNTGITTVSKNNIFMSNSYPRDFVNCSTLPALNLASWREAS

B1: control phage clone A3-12 (f88-4/Cys6 phage displaying a 16 mer cysteine-constrained peptide in pVIII) (peptide)
peptide: MNYYCHQTTKTCRTHS
modifications: disulfide 5-12 (inferred); also: displayed on phage, cysteine-constrained, 99mTc-labelled
The molecule B1 returned a Relative Binding (the control phage, the reference itself) in the assay with TAG-72 of 1 fold.

Take HVLGCSYATNSCAHNA (disulfide 5-12; also: phage labelled with 99mTc via MAG3) [phage clone MPO-6 (f88-4/Cys6 phage displaying a 16 mer cysteine-constrained peptide in pVIII)]: in the assay with myeloperoxidase [1], the Relative Binding (% bound after subtraction of control phage MPO-4) was 5.8%.

B2: phage clone A3-21 (f88-4/Cys6 phage displaying a 16 mer cysteine-constrained peptide in pVIII) (peptide)
peptide: LKNYCRKCSNRCTPTG
modifications: disulfide (positions not given here); also: displayed on phage, cysteine-constrained, 99mTc-labelled
The molecule B2 returned a Relative Binding (fold over control phage A3-12) with TAG-72 of 1 fold. As for TVMLCNPMEQGCRWMC (disulfide 5-12; also: phage labelled with 99mTc via MAG3) [phage clone MPO-15 (f88-4/Cys6 phage displaying a 16 mer cysteine-constrained peptide in pVIII)], the Relative Binding (% bound after subtraction of control phage MPO-4) in the assay with myeloperoxidase [1] came out at 4.5%.

B3: phage clone A3-19 (f88-4/Cys6 phage displaying a 16 mer cysteine-constrained peptide in pVIII) (peptide)
peptide: NLIWCRKEFARCTSDM
modifications: disulfide 5-12 (inferred); also: displayed on phage, cysteine-constrained, 99mTc-labelled
B3 returned a Relative Binding (fold over control phage A3-12) with TAG-72 of 1.5 fold. For the molecule AMPVCSLDRKACTAYQ (disulfide 5-12; also: phage labelled with 99mTc via MAG3) [phage clone MPO-1 (f88-4/Cys6 phage displaying a 16 mer cysteine-constrained peptide in pVIII)], the Relative Binding (% bound after subtraction of control phage MPO-4) with myeloperoxidase [1] was 3.9%. As to RSGQCHDDTWNCLACVGGSGGGC (also: cysteine-constrained, Cys pairing not given here) [MPO-17 twenty-three mer synthetic polypeptide], the UV peak for the enzyme, % of total protein at 5 min of incubation (% of total protein) in the assay with myeloperoxidase [2] was found to be 16. In the assay with myeloperoxidase [3], this molecule displayed a UV peak for the enzyme, % of total protein after 2 hours incubation (% of total protein) of 46. The Kd in the assay with myeloperoxidase [4] came to 900 nM. RSGQCHDDTWNCLACV (disulfide 5-12; also: phage labelled with 99mTc via MAG3) [phage clone MPO-17 (f88-4/Cys6 phage displaying a 16 mer cysteine-constrained peptide in pVIII)] came in with a Relative Binding (% bound after subtraction of control phage MPO-4) with myeloperoxidase [1] of 8%.

B4: phage clone A3-10 (f88-4/Cys6 phage displaying a 16 mer cysteine-constrained peptide in pVIII) (peptide)
peptide: NPGTCKDKWIECLLNG
modifications: disulfide 5-12 (inferred); also: displayed on phage, cysteine-constrained, 99mTc-labelled in binding assays
In turn, B4 came in with a Relative Binding (fold over control phage A3-12) with TAG-72 of 4.3 fold.

The Kd is a measure of binding affinity in units of concentration. Low values mean higher affinity, high ones lower affinity.
